Consider one molecule from patent publication US20190309055A1 (NORDIC BIOSCIENCE A S, published 2019).

For test [1], the target named is T1, standard peptide KPGVISVMGT (last 10 amino acids of the type VI collagen α3 chain, 3168-3177).
T1 construct: also called STD peptide; immunogenic peptide
T1 peptide: KPGVISVMGT
Description: competitive ELISA, peptide specificity test.

Test [2] addresses T2, truncated peptide KPGVISVMG
T2 peptide: KPGVISVMG
Description: competitive ELISA, serial 2-fold dilutions of peptide.

The target in test [3] is T3, elongated peptide KPGVISVMGTA
T3 peptide: KPGVISVMGTA
The description is as above.

B1: monoclonal antibody 10A3 (antibody, mouse IgG1, kappa, V domains shown)
VH: EVQLQQSGPVMVKPGTSVKTSCKASGYTFTDFNMNWVKQSHGKSLEWIGAINPHNGATSYNQKFSGKATLTVDKSSSTAYMELNSLTSDDSAVYYCARWGNGKNSWGQGTTLTVSS
VL: DVVMTQTPLSLPVNLGDQASISCRSSQRIVHSNGITFLEWYLQKPGQSPKLLIYRVSNRFSGVPDRFSGSGSGTDFTLKISRVEAEDLGLYYCFQGSHVPLTFGAGTRLELKR
notes: Mouse IgG1/kappa from hybridoma; also called the chosen antibody; HRP conjugated monoclonal antibody 10A3
Take B1: the binding result in test [1] is “binds”; in test [2] it was “no binding”; in test [3], “no binding”.
